The supplement of paper PMC12042874
± gives the uncertainty stated by the source.

assay: amyloid nucleation score (Sup35N fusion, yeast selection) (log enrichment); library NNK1; higher = more nucleation; inactive = no reads after selection
In short: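 On medium lacking adenine and uracil, psi-negative yeast expressing peptides of 20 random codons fused to Sup35N were grown 7 days at 30°C after a 24-hour induction with 100 μM copper sulfate. Illumina sequencing of input and output plasmid inserts gave the reads, and sequences under 100 input reads were excluded. The nucleation score is the DiMSum log enrichment of output over input reads, centred on the mode score of non-aggregating sequences.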

Row | Substance | amyloid nucleation score
1 | FSLRDISNISIWAYLNQPCR | -0.341 ± 0.32
2 | FSMVAESRIEGILRFS | 0.409 ± 0.22
3 | FSNAIKQVFQGYLWTNPW | -0.188 ± 0.3
4 | FSQYVGDFYILMRVSFEFMK | 0.033 ± 0.44
5 | FSRFLYEYGCGELVATFLPW | 0.517 ± 0.24
6 | FSRSWGDCIGERCGVV | 0.307 ± 0.38
7 | FSSYPLGFRNRRDTVDMTIV | 0.018 ± 0.38
8 | FSTGNPWVD | -0.342 ± 0.8
9 | FSVKFVSNPFSQLLSARPWW | -0.603 ± 0.34
10 | FSVWGLRLTRARMQTERVLL | 0.86 ± 0.59
11 | FTALPSTVVIVQHTLHLDSF | 6.48 ± 0.066
12 | FTCRFFVCFGLCGDHEHSPI | 7.561 ± 0.057
13 | FTDTEYLQGLDIGVGMERLY | -0.218 ± 0.65
14 | FTLHYCLMDAFWGSSMDRGV | 0.275 ± 0.41
15 | FTSRYLDF | 0.382 ± 1.2
16 | FTVSLTSLYYISITGLLARR | -0.115 ± 0.52
17 | FTVVLYLSVVLKFKDAGEEG | 4.09 ± 0.092
18 | FVAGDSLTHARKYAVQRL | -1.08 ± 0.59
19 | FVAVNILDMMKAYKLFENLF | -0.256 ± 0.22
20 | FVCWRYRCFLWELEEDGLVN | 0.627 ± 0.71
21 | FVFHVGDDARGSCHKCRLWN | 0.665 ± 0.62
22 | FVGFGWYCLDFFHFLNASLG | -0.29 ± 1.4

Row | Substance | amyloid nucleation score
23 | FVGGVSSERYLFGWLS | -1.51 ± 1
24 | FVHDLWLGYGVNFLIAVMCS | 0.209 ± 0.34
25 | FVHPLMYSDS | -0.386 ± 0.43
26 | FVINSTIRKVFFGFPDWCMC | -0.135 ± 0.3
27 | FVKGRGNKTQVWHESVYKDA | -0.203 ± 0.54
28 | FVKNSKHYRPFLNGSKRM | 0.475 ± 0.83
29 | FVLFRLFEFASNIRVTFFF | -0.833 ± 0.62
30 | FVLGDCCDIFSSYNQIMYIS | 3.26 ± 0.12
31 | FVLGWQI | 1.63 ± 0.56
32 | FVMFLPIYEF | -0.35 ± 0.8
33 | FVRIRYITGRITSDRRREFC | 0.591 ± 1
34 | FVSNYYYV | 1.95 ± 0.17
35 | FVSRGLYGVLGTVSFLL | -2.07 ± 1.6
36 | FVSWLFVS | -1.4 ± 0.98
37 | FVVAVGLIVFD | 0.027 ± 1.7
38 | FVVEWWLASRMGLLIRGYRR | -0.462 ± 0.58
39 | FVVRLRLLANLWWYNCCKCS | 0.748 ± 0.43
40 | FWCISVRVNYNGYYVYF | 1.2 ± 0.26
41 | FWELECADIAVKSKGGCQGC | -0.402 ± 0.44
42 | FWGCTQMSRLDATDVSL | 0.867 ± 1
43 | FWGNGQRVNSNIQRDVKWDA | -0.199 ± 0.45
44 | FWIEGP | 0.564 ± 0.9

Row | Substance | amyloid nucleation score
45 | FWSYLSGLVGMYGQIVIKKA | 0.059 ± 0.79
46 | FWYSNIYSIFMLPVIVWEPN | 6.515 ± 0.053
47 | FYCPRIKNVFSEICIC | 3.79 ± 0.1
48 | FYHKTFVYKEGLNGAALLGM | -0.023 ± 0.48
49 | FYRCRRSRNGGISDVFRIIP | 0.242 ± 0.3
50 | FYRSQMIFFYMLVAPMWGRL | -0.599 ± 0.56
51 | FYSCIYYGHMLVELPDMLEL | -0.056 ± 0.35
52 | FYTCCMSYVVWIMHVRRLAG | 0.774 ± 0.56
53 | GACLWGT | 0.338 ± 0.29
54 | GAILENYALFESRTYFMLHC | 0.383 ± 0.66
55 | GALFWVIPIMLLMRSGLLDP | 0.498 ± 0.3
56 | GAPRSCGLAD | 0.27 ± 0.63
57 | GATTMFEVGICNENRKVYVE | -0.179 ± 0.29
58 | GCFMLSSGLGISEPGSFWWG | 0.224 ± 0.53
59 | GCFRGPTGLCG | -0.271 ± 0.66
60 | GCMAPNCCGWEGVDEMSWVR | -0.013 ± 0.84
61 | GCRGSFVEGWIAHMADGSFI | -0.577 ± 0.57
62 | GCRPMSFKMSVAVGHLMGDT | 2.79 ± 0.2
63 | GCSLLHLRVWYLSDHIIMRS | 0.834 ± 0.36
64 | GDMFVAKCYSRGDSQISLMF | 0.368 ± 0.37
65 | GDRKACSVRCRHATDKICAD | -0.309 ± 0.57
66 | GDSYVRHRMDP | inactive

Row | Substance | amyloid nucleation score
67 | GDYVRWVRSGYLMQLLNEDS | -0.379 ± 0.75
68 | GDYYACGPTCGSRAAFPGVG | -0.383 ± 0.59
69 | GEFESSNVRSACSGGYFRAA | -0.186 ± 0.88
70 | GEKYNIFNFGFVLCSSLVLF | 8.116 ± 0.049
71 | GEVSRWRMCGLSLMEGRGLQ | 0.733 ± 0.44
72 | GFCFCCRSGYARVIRFEART | -0.17 ± 0.48
73 | GFDFMWGGGFRNSRNRFQLS | 0.428 ± 0.6
74 | GFDIMYLILTPSCPATQSGM | inactive
75 | GFFGFIGRVMVIGRWREVPG | -0.265 ± 0.24
76 | GFFVNNCLFSILLDFWVSEE | 1.24 ± 0.26
77 | GFIQWLMLWRVFFSM | -0.681 ± 0.39
78 | GFIVTGNVGTFNALLERVLT | 4.04 ± 0.13
79 | GFKGILTYGRGVLVHFYRPQ | 0.09 ± 0.35
80 | GFLVSEGFLIVGLLIRVRGL | 0.641 ± 0.37
81 | GFMICVADTGTANSSYVDVF | -0.201 ± 0.36
82 | GFMVDERSTIVEDLPRSADV | -0.913 ± 0.34
83 | GFRQVSCHHHWGGNSWMCR | 0.717 ± 0.19
84 | GFRSGSCGFGIL | -1.14 ± 0.48
85 | GFSLSPRAWRTGGVWAECAE | 0.7 ± 0.82
86 | GFSSMGCSVRNSHTAHGGCG | 1.73 ± 0.17
